IC50 (ng/mL), inhibition of Tweak-induced NFkB activation (luciferase reporter, NFkB/HEK293 cells), geometric mean of three trials data for one molecule are collected here from patent US20210388096A1.

The target in the test is human Fn14 on cells (NFkB/HEK293 reporter cells, A375 cells) (human) (UniProt Q9NP84). The test is described as follows: cell-based or functional assay.
Sequence of human Fn14 on cells (NFkB/HEK293 reporter cells, A375 cells) (human) (Q9NP84 28-129): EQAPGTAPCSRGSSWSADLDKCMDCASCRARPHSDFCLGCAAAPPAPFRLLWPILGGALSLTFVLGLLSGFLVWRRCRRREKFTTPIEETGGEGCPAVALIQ

B1: mouse anti-human Fn14 antibody CRCBT-06-002 (antibody, from another filing, V domains shown)
VH: EVKLQQSGGGLVQPGGSMKLSCVASGFTFSYYWMNWVRQSPEQGLEWIAEIRLQSNDYPTHYAESVKGRFTISRDDSKNSVYLQMNNLRPEDTGIYYCACRYADYFDHWGQGTTLTVSS
VL: DTVLTQSPASLVVSLGQRATISCRASQSVSTSDYSYIHWYQQKPGQPPKFLIKYASNRDSGVPARFSGSGSGTDFTLNIHPVEEDDTAIYYCQHSWEIPPTFGAGTKLELQR
Take B1: the IC50 (ng/mL), inhibition of Tweak-induced NFkB activation (luciferase reporter, NFkB/HEK293 cells), geometric mean of three trials stood at 115 ng/mL.
